Test results published in publication PMC4463457.

B1: VSV-SNAP-hD3 (VSV- and SNAP-tagged human dopamine D3 receptor) [modified: SNAP tag covalently labelled with SNAP-Lumi4-Tb or SNAP-Red; SNAP tag covalently labelled with SNAP-Lumi4-Tb or SNAP-Red] [human] / … (parent)
chain: MASLSQLSGHLNYTCGAENSTGASQARPHAYYALSYCALILAIVFGNGLVCMAVLKERALQTTTNYLVVSLAVADLLVATLVMPWVVYLEVTGGVWNFSRICCDVFVTLDVMMCTASILNLCAISIDRYTAVVMPVHYQHGTGQSSCRRVALMITAVWVLAFAVSCPLLFGFNTTGDPTVCSISNPDFVIYSSVVSFYLPFGVTVLVYARIYVVLKQRRRKRILTRQNSQCNSVRPGFPQQTLSPDPAHLELKRYYSICQDTALGGPGFQERGGELKREEKTRNSLSPTIAPKLSLEVRKLSNGRLSTSLKLGPLQPRGVPLREKKATQMVAIVLGAFIVCWLPFFLTHVLNTHCQTCHVSPELYSATTWLGYVNSALNPVIYTTFNIEFRKAFLKILSC

Variants of: B1
Assay: htrFRET
Conditions: with itself; HEK293T cells transfected with increasing amounts of construct; read off a plot

Row | Variant | ratio to parent
1 | chain 1 D187A I190A V194A L199A | 0.89
2 | chain 1 Y31A Y32A L34A S35A | 1
3 | chain 1 R210A Y212A V213A K216A | 0.76
4 | chain 1 F394A L395A K396A | 0.5
